Measured values published in paper PMC11861356.

Biological target: IRF3 (UniProt Q14653)
Assay: co-immunoprecipitation of tagged proteins, immunoblot
Details: reference: wild-type TBK1; sites Y174

**Q.** How did the “binding against the reference” value turn out when TBK1 (from UniProt Q9UHD2) TBK1 Y174F was run?
**A.** weaker
